From publication PMC12484979 (Nature Communications, 2025) come the findings set out here.

Common to all, as to test: cryo-EM structure
One data set has as its target CD20 (UniProt P11836).
Data set [1] addresses human β-tryptase, tetrameric (activated by enterokinase cleavage) (human) (UniProt Q15661).
The data set “cryo-EM structure” deals with the molecule itself.

“Rituximab Fab, wild type (human-mouse chimeric)” came in with a stoichiometry N (Fab per CD20 dimer) with CD20 of 2.

Regarding “human β-tryptase, tetrameric (activated by enterokinase cleavage) (from UniProt Q15661 31-275) (enzyme)”, the stoichiometry N (usually the number of molecules, sites or subunits per partner or assembly) in data set [1] stood at 4.

B1: CD20 (natural protein)
chain: TQSFFMRESKTLGAVQIMNGLFHIALGGLLMIPAGIYAPICVTVWYPLWGGIMYIISGSLLAATEKNSRKCLVKGKMIMNSLSLFAAISGMILSIMDILNIKISHFLKMESLNFIRAHTPYINIYNCEPANPSEKNSPSTQYCYSIQSLFLGILSVMLIFAFFQELVIAGIVENEWKRTCSRPKSNIVLLSAEEKKEQTIEIKEEVVGLTETSSQPKNEEDIEIIPIQEEEEEETETNFPEPPQDQESSPIENDSSP
As for B1, in the data set “cryo-EM structure”, the “stoichiometry N” value came out at 2.
